Each block holds one substance with its values, some of them ahead of it.
Assays:
Assay in all cases: BRET
[1] = molecular target: luciferase-FOXP2 (wild-type, full-length 1-715) (UniProt O15409); settings: HEK293 cells, n = 3, read off a plot
[2] = molecular target: luciferase-FOXP1 (UniProt Q9H334); settings: HEK293 cells, n = 3, read off a plot
[3] = molecular target: luciferase-FOXP2 (wild-type, full-length 1-715) (UniProt O15409); settings: HEK293 cells, n = 3, read off a plot; remark: listed apart in the source
[4] = molecular target: YFP-SUMO2 alanine mutant (AA), P61956-1; settings: HEK293 cells; n = 3; control donor (nuclear-targeted luciferase) est. 0.028; parent: est. 0.20; read off a plot
[5] = molecular target: YFP-SUMO1 alanine mutant (AA), P63165-1; settings: HEK293 cells; n = 3; control donor (nuclear-targeted luciferase) est. 0.005; parent: est. 0.15; read off a plot
[6] = molecular target: YFP-SUMO3 alanine mutant (AA), P55854-2; settings: HEK293 cells; n = 3; control donor (nuclear-targeted luciferase) est. 0.034; parent: est. 0.23; read off a plot
[7] = molecular target: YFP-SUMO1 alanine mutant (AA), P63165-1; settings: HEK293 cells; n = 3; control donor (nuclear-targeted luciferase) est. 0.004; parent: est. 0.15; read off a plot
[8] = molecular target: YFP-SUMO2 alanine mutant (AA), P61956-1; settings: HEK293 cells; n = 3; control donor (nuclear-targeted luciferase) est. 0.028; parent: est. 0.20; read off a plot; remark: listed apart in the source
[9] = molecular target: YFP-SUMO3 alanine mutant (AA), P55854-2; settings: HEK293 cells; n = 3; control donor (nuclear-targeted luciferase) est. 0.034; parent: est. 0.23; read off a plot; remark: listed apart in the source
[10] = control donor (nuclear-targeted luciferase) est. 0.028, parent: est. 0.20
[11] = control donor (nuclear-targeted luciferase) est. 0.034, parent: est. 0.23

Chain of YFP-SUMO1 alanine mutant (AA), P63165-1 (P63165 1-97, change not shown): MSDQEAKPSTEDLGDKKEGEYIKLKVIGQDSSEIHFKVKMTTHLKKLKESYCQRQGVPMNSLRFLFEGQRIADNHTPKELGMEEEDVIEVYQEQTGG
Chain of YFP-SUMO3 alanine mutant (AA), P55854-2 (P55854 other isoform, or with tags, fused parts or gaps, change not shown): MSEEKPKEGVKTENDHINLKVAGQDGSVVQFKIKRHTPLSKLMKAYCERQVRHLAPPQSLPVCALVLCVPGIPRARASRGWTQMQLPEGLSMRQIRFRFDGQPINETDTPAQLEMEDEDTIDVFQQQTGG

response [1, 10]: 0.032 BRET ratio
response ([2]; control donor (nuclear-targeted luciferase) est. 0.012, parent: est. 0.19): -0.036 BRET ratio
response ([3]; control donor (nuclear-targeted luciferase) est. 0.012, parent: est. 0.13): 0.005 BRET ratio
response [3, 10]: 0.032 BRET ratio
Substance: YFP-SUMO2 (wild-type, GG) (from UniProt P61956-1) AA

response [4]: 0.048 BRET ratio
Substance: m1; m11 FOXP2:R553H; SUMO2:AA

response [5]: 0.012 BRET ratio
Substance: m1; m10 FOXP2:K674R; SUMO1:AA

response [6]: 0.043 BRET ratio
Substance: m1; m12 FOXP2:K674R; SUMO3:AA

response [7]: 0.008 BRET ratio
Substance: m1; m10 FOXP2:R553H; SUMO1:AA

response [1, 11]: 0.065 BRET ratio
response ([2]; control donor (nuclear-targeted luciferase) est. 0.015, parent: est. 0.20): -0.035 BRET ratio
response ([3]; control donor (nuclear-targeted luciferase) est. 0.015, parent: est. 0.15): 0.012 BRET ratio
response [3, 11]: 0.065 BRET ratio
Substance: YFP-SUMO3 (wild-type, GG) (from UniProt P55854) AA

response ([1]; control donor (nuclear-targeted luciferase) est. 0.004, parent: est. 0.15): 0.019 BRET ratio
response ([2]; control donor (nuclear-targeted luciferase) est. 0.000, parent: est. 0.15): -0.043 BRET ratio
response ([3]; control donor (nuclear-targeted luciferase) est. 0.000, parent: est. 0.077): -0.017 BRET ratio
response ([3]; control donor (nuclear-targeted luciferase) est. 0.005, parent: est. 0.15): 0.019 BRET ratio
Substance: YFP-SUMO1 (wild-type, GG) (from UniProt P63165-1) AA

response [8]: 0.021 BRET ratio
Substance: m1; m11 FOXP2:K674R; SUMO2:AA

response [9]: 0.027 BRET ratio
Substance: m1; m12 FOXP2:R553H; SUMO3:AA

Reference: article PMC4751435 (2016)
